Measured values published in patent US12637502B2, “Netrin G1 polypeptides” (Institute For Cancer Research, priority 2019, dated 2026).

How the values were obtained:
CAFs [1] = test: Cytokine secretion by CAFs treated with sNG1 or NetG1 peptides (ELISA); assay type: cell-based; details: CAFs treated 7 days, media conditioned 2 days, vs CON
Procedure: 1.6×10^5 Control (CON) or NetrinG1 Ligand knockdown (NGL1 KD) CAFs were plated into 24 well plates and allowed to produce matrices in the presence of 50 μg/mL of ascorbic acid and were either untreated or treated with either soluble NetrinG1 (sNG1), NetG1 peptide corresponding to a domain known to engage with NGL1 (NPYMSNNE; SEQ ID NO:26; (FITC)—Ba-Asn-Pro-Tyr-Met-Ser-Asn-Asn-Glu-(NH2)), hypothesized to modestly prevent NetG1/NGL1 interaction (peptide), or a modified NetG1 peptide (NPTMSNNE; SEQ ID NO:27; (FITC)—Ba-Asn-Pro-Thr-Met-Ser-Asn-Asn-Glu-(NH2)) suspected to strongly prevent NetG1/NGL1 engagement (mutant), for 7 days. […] The media was then replaced with serum- and glutamine-free media and CAFs were allowed to condition the media for 2 days. Conditioned media was collected from each well and subjected to ELISA for the measurement of cytokine (TGF-β, IL-6, and IL-8) secretion. […] 01, *** p<. 001, **** p<. 0001. N=3-6.

[2] = tested on: T cells from murine spleens; test: T cell activation with CD3/CD28; assay type: cell-based; details: recombinant NetG1 present during activation
PDAC cancer cells = test: Rescue of starvation-induced death of PDAC cancer cells by CAF-produced EVs; assay type: cell-based
Excerpt: PDAC cells die in the absence of nutrition but can be rescued using EVs secreted by intact CAFs. If CAFs are deficient in NetG1 expression, the resultant EVs fail to rescue PDAC cells from starvation. […] The pharmaceutical agents set forth herein will prevent the NetG1/NGL1 engagement and, thus, serve as therapeutics that will assure PDAC cells will not survive under nutritional stress as in vivo.

CAF EVs = test: Clustering of CAF-secreted EVs treated after collection; details: CAF EVs incubated with the agent following their collection
[3] = tested on: virus infected neurons plated onto a CAF culture bed; test: Heterotypic neuron-CAF functional synapse formation (virus spread into CAFs); assay type: cell-based; details: FIG. 3B/3D
Procedure: (§1) Viral transmission was used as a test to investigate the formation of functional synapses. […] The same experiment, as in Panel A, was conducted, except that virus (red) infected neurons (green) were plated onto a CAF culture bed (evident in transmitted microscopy images shown in bottom panels) to assess heterotypic neuron-CAF functional synapse formation (evidence by red virus spread into CAFs) while untreated (left) or treated with recombinant NGL1 (middle) or NetG1 (right) (Panel B).

virus infected neurons = test: Synapse-dependent viral transmission between neurons; assay type: cell-based; details: neurons only, FIG. 3A/3C
Procedure: as §1

CAFs [4] = test: EV production by CAFs treated with recombinant NGL1; assay type: cell-based
CAFs [5] = test: CAF blebbing under 3D conditions; assay type: cell-based, human
Excerpt: The phenotype is believed to indicate fibroblastic function after NGL1 engagement from other cells (like tumor cells). Similar effects were observed when cancer cells were co-cultured with CAFs using CAF-derived matrices as culturing scaffolds.

Molecule | secreted IL-6 (CAFs [1]) | secreted IL-8 (CAFs [1]) | secreted TGF-β (CAFs [1]) | T cell activation (proliferation) by CD3/CD28 [2] | effectiveness of EVs from NetG1 deficient CAFs (NG1KO) in rescuing starvation-induced death of PDAC cancer cells (PDAC cancer cells; recombinant NetG1 treatment of KRAS-transformed pancreatic cells) | EV clustering (CAF EVs) | functional synapses between neurons and fibroblasts (virus spread into CAFs) [3] | virus transmission via functional synapses between neurons (virus infected neurons) | clustering of EVs produced by treated CAFs (CAFs [4]) | number of EVs produced (CAFs [4]) | CAF blebbing (membrane ruffling or protruding) (CAFs [5]; 3D conditions that enable NetrinG1 expression in CAFs) | CAF blebbing in NetG1 KO CAFs (CAFs [5]; same treatment, NetG1 KO CAFs) | effectiveness of CAF-produced EVs in rescuing starvation-induced death of PDAC cancer cells (PDAC cancer cells; EVs pre-incubated with recombinant NGL1)
NPTMSNNE (NetG1 polypeptide) [SEQ ID NO:27] | significant decreases | significant decreases | significant decreases | – | – | – | – | – | – | – | – | – | –
NPYMSNNE (NetG1 polypeptide) [SEQ ID NO:26, NetG1 peptide corresponding to a domain known to engage with NGL1] | significant decreases | significant decreases | significant decreases | – | – | – | – | – | – | – | – | – | –
recombinant NetG1: recombinant Netrin G1 protein added to EVs or cell cultures (protein) HYDLCKTQIYTEEGKVWDYMACQPESTDMTKYLKVKLDPPDITCGDPPETFCAMGNPYMCNNECDASTPELAHPPELMFDFEGRHPSTFWQSATWKEYPKPLQVNITLSWSKTIELTDNIVITFESGRPDQMILEKSLDYGRTWQPYQYYATDCLDAFHMDPKSVKDLSQHTVLEIICTEEYSTGYTTNSKIIHFEIKDRFAFFAGPRLRNMASLYGQLDTTKKLRDFFTVTDLRIRLLRPAVGEIFVDELHLARYFYAISDIKVRGRCKCNLHATVCVYDNSKLTCECEHNTTGPDCGKCKKNYQGRPWSPGSYLPIPKGTANTCIPSISSIGNCECFGHSNRCSYIDLLNTVICVSCKHNTRGQHCELCRLGYFRNASAQLDDENVCIECYCNPLGSIHDRCNGSGFCECKTGTTGPKCDECLPGNSWHYGCQPNVCDNELLHCQNGGTCHNNVRCLCPAAYTGILCEKLRCEEAGSCGS | – | – | – | activation is prevented | improves the effectiveness of EVs | only clusters exosomes | prevented | limited virus transmission | – | – | – | – | –
recombinant NGL1: recombinant Netrin G1 ligand (NGL1) protein added to EVs or cell cultures (protein) QTCPSVCSCSNQFSKVICVRKNLREVPDGISTNTRLLNLHENQIQIIKVNSFKHLRHLEILQLSRNHIRTIEIGAFNGLANLNTLELFDNRLTTIPNGAFVYLSKLKELWLRNNPIESIPSYAFNRIPSLRRLDLGELKRLSYISEGAFEGLSNLRYLNLAMCNLREIPNLTPLIKLDELDLSGNHLSAIRPGSFQGLMHLQKLWMIQSQIQVIERNAFDNLQSLVEINLAHNNLTLLPHDLFTPLHHLERIHLHHNPWNCNCDILWLSWWIKDMAPSNTACCARCNTPPNLKGRYIGELDQNYFTCYAPVIVEPPADLNVTEGMAAELKCRASTSLTSVSWITPNGTVMTHGAYKVRIAVLSDGTLNFTNVTVQDTGMYTCMVSNSVGNTTASATLNVTAATTTPFSYFSTVTVETMEPSQDEARTTDNNVGPTPVVDWETTNVTTSLTPQSTRSTEKTFTIPVTDINSGIPGIDEVMKTTKIIIGCFVAITLMAAVMLVIFYKMRKQHHRQNHHAPTRTVEIINVDDEITGDTPMESHLPMPAIEHEHLNHYNSYKSPFNHTTTVNTINSIHSSVHEPLLIRMNSKDNVQETQI | – | – | – | – | – | enables small NetG1 positive (i.e., exomeres) | prevented | limited virus transmission | induced some clustering | production of increased numbers of EVs | induced CAF blebbing | blebbing was not observed | tends to decrease
